The text below walks through data of PMC4627809, “Client Proteins and Small Molecule Inhibitors Display Distinct Binding Preferences for Constitutive and Stress-Induced HSP90 Isoforms and Their Conformationally Restricted Mutants” (PLoS ONE, 2015).

For this experiment, the target named is T1, FLAG-HSP90α wild type (human, UniProt P07900 1-732).
T1 construct: HSP90α, stress-inducible cytosolic HSP90 isoform, encoded by HSP90AA1, human; The plasmid list names only pcDNA3-FLAG-HSP90α; the LUMIER methods call the protein 3XFLAG-tagged; also called HSP90α WT; 3XFLAG-HSP90α; source: HEK293, transfected, in lysate
The experiment can be described thus: LUMIER; HEK293 in 96-well plates co-transfected with NanoLuc-client and 3XFLAG-HSP90α or β; TGNET lysate on anti-FLAG antibody-coated plate 2 h at 4°C; NanoLuc read-out divided by anti-FLAG-HRP read-out = relative interaction strength. The following applies: partners not purified.

B1: NL-RHOBTB2/DBC2 (natural protein, UniProt Q9BYZ6 1-727, looked up)
chain: MDSDMDYERPNVETIKCVVVGDNAVGKTRLICARACNATLTQYQLLATHVPTVWAIDQYRVCQEVLERSRDVVDDVSVSLRLWDTFGDHHKDRRFAYGRSDVVVLCFSIANPNSLHHVKTMWYPEIKHFCPRAPVILVGCQLDLRYADLEAVNRARRPLARPIKPNEILPPEKGREVAKELGIPYYETSVVAQFGIKDVFDNAIRAALISRRHLQFWKSHLRNVQRPLLQAPFLPPKPPPPIIVVPDPPSSSEECPAHLLEDPLCADVILVLQERVRIFAHKIYLSTSSSKFYDLFLMDLSEGELGGPSEPGGTHPEDHQGHSDQHHHHHHHHHGRDFLLRAASFDVCESVDEAGGSGPAGLRASTSDGILRGNGTGYLPGRGRVLSSWSRAFVSIQEEMAEDPLTYKSRLMVVVKMDSSIQPGPFRAVLKYLYTGELDENERDLMHIAHIAELLEVFDLRMMVANILNNEAFMNQEITKAFHVRRTNRVKECLAKGTFSDVTFILDDGTISAHKPLLISSCDWMAAMFGGPFVESSTREVVFPYTSKSCMRAVLEYLYTGMFTSSPDLDDMKLIILANRLCLPHLVALTEQYTVTGLMEATQMMVDIDGDVLVFLELAQFHCAYQLADWCLHHICTNYNNVCRKFPRDMKAMSPENQEYFEKHRWPPVWYLKEEDHYQRARKEREKEDYLHLKRQPKRRWLFWNSPSSPSSSAASSSSPSSSSAVV
notes: E3-ubiquitin ligase RHOBTB2/DBC2; also called RHOBTB2 fused to NanoLuc luciferase; source: HEK293, transfected, in lysate; not shown: NanoLuc luciferase, N-terminal, kept
Turning to B1, the “fold difference in relative interaction strength, HSP90α against HSP90β” value was roughly 3 fold.
